Results from patent US20200354411A1, “Chimeric Molecule for Targeting c-Myc in Cells” (priority 2017, published 2020).

Target: c-Myc (UniProt P01106)
Test: cell-based or functional assay

c-Myc, sequence (P01106 whole entry): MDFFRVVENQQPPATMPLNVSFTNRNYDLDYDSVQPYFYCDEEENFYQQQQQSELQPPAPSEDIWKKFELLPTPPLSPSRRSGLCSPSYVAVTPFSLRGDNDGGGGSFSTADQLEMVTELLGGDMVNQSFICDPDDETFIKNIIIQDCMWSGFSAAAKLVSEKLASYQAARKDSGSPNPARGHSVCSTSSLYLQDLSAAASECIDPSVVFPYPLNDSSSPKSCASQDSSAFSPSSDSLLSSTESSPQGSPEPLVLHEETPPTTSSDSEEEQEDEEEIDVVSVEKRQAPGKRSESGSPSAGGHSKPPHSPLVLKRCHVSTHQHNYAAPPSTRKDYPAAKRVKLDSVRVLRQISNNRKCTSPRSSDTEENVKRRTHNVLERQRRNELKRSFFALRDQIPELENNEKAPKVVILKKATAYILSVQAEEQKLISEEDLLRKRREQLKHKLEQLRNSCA

| decrease in Myc reporter activity at 150 µM [%] | luciferase controlled by E-Box, A431 cells, 6 hours [µM] | decrease in Myc reporter activity at 400 µM [%] | Substance |
| --- | --- | --- | --- |
| < 75 | 75 | – | CAD-H1 (Cadherin cell targeting peptide fused to H1) |
| – | 200 | < 75 | Int-H1 (Antenapedia cell targeting peptide fused to H1) |

| Substance | decrease in Myc reporter activity at 150 µM [%] | luciferase controlled by E-Box, A431 cells, 6 hours [µM] | decrease in Myc reporter activity at 400 µM [%] |
| --- | --- | --- | --- |
| Tat-H1 (TAT cell targeting peptide fused to H1) | – | 500 | – |
